For the experiment, the target named is T1, Gli2-ZF-SNAP (human), P10070.
T1 chain: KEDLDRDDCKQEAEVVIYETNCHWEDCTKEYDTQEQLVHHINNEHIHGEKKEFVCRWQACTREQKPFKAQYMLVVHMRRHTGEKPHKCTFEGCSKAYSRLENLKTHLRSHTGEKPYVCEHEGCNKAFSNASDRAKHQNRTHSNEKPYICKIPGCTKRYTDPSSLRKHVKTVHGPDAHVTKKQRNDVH
As to the kind of experiment: TIRF microscopy; 100 nM Gli2-ZF-SNAP-Alexa647 with 100 nM kinesin on microtubules. The settings on record: remark: other sources report otherwise.

B1: Kif7-MM (monomeric Kif7 motor domain, 1-386aa), Q2M1P5 1-386 (protein)
chain: MGLEAQRLPGAEEAPVRVALRVRPLLPKELLHGHQSCLQVEPGLGRVTLGRDRHFGFHVVLAEDAGQEAVYQACVQPLLEAFFEGFNATVFAYGQTGSGKTYTMGEASVASLLEDEQGIVPRAMAEAFKLIDENDLLDCLVHVSYLEVYKEEFRDLLEVGTASRDIQLREDERGNVVLCGVKEVDVEGLDEVLSLLEMGNAARHTGATHLNHLSSRSHTVFTVTLEQRGRAPSRLPRPAPGQLLVSKFHFVDLAGSERVLKTGSTGERLKESIQINSSLLALGNVISALGDPQRRGSHIPYRDSKITRILKDSLGGNAKTVMIACVSPSSSDFDETLNTLNYASRAQNIRNRATVNWRPEAERPPEETASGARGPPRHRSETRIIH
modifications: here or on the partner: Alexa 647 dye on the SNAP tag in the TIRF assays
In the case of B1, the fold Gli2-ZF Alexa-647 intensity on microtubules over Gli alone was 3 fold.

The values above are taken from patent US20230374088A1.
